Reference: the DeepSol protein solubility set

experiment: soluble on expression in E. coli; label from the status in PepcDB or PDB records

| Sequence | soluble on expression in E. coli |
| --- | --- |
| MFARNFFKGGTKVPHFKNTAECETVKMGVPEKVVIPMLQHVGAPCEPCVKKGDTVRVGQVIGNSDKYISSPIHSSVSGTVNDVAPMLFAGGIYVTAVEIKTDGKQEIYEGIKPPSFSNSKEFISAIRESGLVGLGGAGFPAHVKLSPPPDKKIDTLIINAAECEPYITSDYREIIENSWNVVSGINIIMEILGIENVLIGIEDNKPEAIKEMTRVAATDDRINVIKLKSRYPQGAEKMLIYATTGRKVPPGKLPADVGVIVMNVNSVSFISEYIKTGMPLIKKRVTVDGPSVKRPGNVEVLIGTPISEVFSFCGGFGIVPKKILMGGPMMGIAQYTLDTPVLKHTNALLAFDETTAVLPKEQACIRCGRCVRACPMNLLPLYLNNNSIRGNIEELNRYHVMDCIECGSCAYVCPAKINLVQSIRLGKAQVRQAAAKGGN | not soluble |
| MGSDKIHHHHHHMEDREQLYTLLAQKDWDAIGKIIYKNKKAKKQDPFLTQVTTFFEAEFFEFTRPLPPAERAKQFEHTNLIIELGQHGFSQAFVDNFVDERLKLMQETQHSALLNYAQTYQHRPLAQRIIASFINTKPEAVAASLRENMTIRATDVQPGKAKTIRLFKSKQEEHFYEAVRRVFPTYHPYPNVALSCVLDYQAIKDSLSEQAKSYFFKAIIDSVVFDVGSGYEPKYFIELDSNFHDAAQAQANDKMKDDIFRAANTKLIRIRPLNSKASSIEEFEKLVREVMRQL | not soluble |
| MDFDRIAMRTTDPAWQKGSAPATPSPVEADAKVTMRLRYTKTGAMRYLSHLEMIGLFTRAVGRARLPIRFSQGFHPHPKFSFATALSVGVESWAEYLDMELIPSLTPGEVRDRLNAALPEGMRIVEAVVIPPGTPSLSVLMDKVRYRIILLEEAARDLAARAEAFLARDSFPLRRAKKGRIQEYDLEHHHHHH | not soluble |
| SAMKPTAGPTTNADLTSAPPHDIFISHAWEDKADFVEALAHTLRAAGAEVWYDDFSLRPGDSLRRSIDKGLGSSRFGIVVLSTHFFKKEWPQKELDGLFQLESSGRSRILPIWHKVSKDEVASFSPTMADKLAFNTSTKSVDEIVADLMAIIRD | soluble |
| LGQTTERYKSVIESMIEGIIIIDLEGKIIDHNKAATQIIGYEDLVLIGNDFSLGPGEAIREDETKFPFEEFPGIKTLRTGMPYKNVILGWIIPGKDTIWLSINSEPVKNENGEQVAVVCSYSDVT | not soluble |
| MTTSLIHMANHLDASTEEISLNYVLLGHPHHERAQHHPSYMDMIKGAIQAIDNGTGSSKAAILKYIAQNYHVGENLPKVNNHLRSVLKKAVDSGDIEQTRGHGATGSFRMGKECEKNLQVGIPVQTKPMLMLKEVRQKLENISKAEKTKPSTSSMSTNKKGKPISTMKKRGVMSKKRSSKNKMAPKAKSHGLKKKGPATKSSGLVHKAAGAKNEAAPTTKMELRTGTRKSYC | not soluble |
| MSLKFVGIVGSNAEQSYNRMLLEFIRKNFKTKFELEVLEIDDIPMFNQDQNWEESFQLRLLNNKITRADGVIIATPEHNHTITAALKSVLEWLSFAVHPLENKPVMIVGASYYDQGTSRAQIHLRKILDAPGVNAYTLPGNEFLLGKAKEAFDDNGNIINPGTVQFLETCLDNFIKYVGVVSSLRKPKAIESEDLYCQGQIDTTITGIDPDDPDWLDKAAEKVNAVEGDAYVKLDNGLLTVNQLNMFLNAMPFELTYADDNNQFLYYNNNHPDPDTMLGKRVREQVGNRMATVHGSLPPARMKNVEWVIGTLRNGNQEYVRTVVPGTPPEVINTHNYQAMYYPDGSYAGINEIIFNFKPWLDWYLQTTGQRLVGGTTAAPGASAVDATSSASTSTGDAPVDQATDATSGASEHEGHHHHHH | soluble |
| MERTVKLRVKVDYKTYSALKEVEKEYREVLEEAINYGLSNKTTSFTRIKAGVYKTEREKHKDLPSHYIYTACEDASERLDSFEKLKRRGRSYTEKPSVRRVTIHLDDHLWKFNLDRISISTKRSRILISPTFPKIFWRYYNKGWRIASEARFKLLKGNVVEFYVIFKRDEPKPYEPKGFISVDLNENSVSVLVDGKPMLLETNTKRITLGYEYRRKAITTGKSTKDREVRRKLKRLRERNKKVDIRRKLAKLIVKEAFESRSVIVLEDLPRRTPEHMIKDVKDSQLRLRIYRAAFSSMKNAIIEKAREFGVPVVLVNPSHTSTVCPVHGTKIVYQLDGGDAPRVGVCEKGKEKWHRDVVALYNLARRAGDVSPVPLGSKESHDPPKRWLRAKSLHSIMNDHKMIEMKVLEHHHHHH | not soluble |
| MSLGHELYLVGGSVRDALLGRLSPDLDFTTDARPERVQEIVRPWADAVWDTGIEFGTVGVGKSDHRMEITTFRADSYDRVSRHPEVRFGDCLEGDLVRRDFTTNAMAVRVTATGPGEFLDPLGGLAALRAKVLDTPAAPSGSFGDDPLRMLRAARFVSQLGFAVAPRVRAAIEEMAPQLARISAERVAAELDKLLVGEDPAAGIDLMVQSGMGAVVLPEIGGMRMAIDEGHHHHHH | not soluble |
| GHMKIVLKIFHAGSLSVPFEEYEKMFEKEHPNVDVEREPAGSVACVRKIIDLGKKADILASADYSLIPQMMMPKYADWYVMFARNEIVLAYTDKSKYKDEINSTNWYKILQRPDVKIGFSNPNDDPCGYRTQMVLQLAELYYKDPTIYDNLVLKHSNIKVEENNGTYLILVPKELDVDTNKLFVRSKETDLLAPLEAGAFDYLFIYKSVANQHHLKYIELPKEINLGYYEYADTYKKVALKIIAKNKTINAKPIVYGMTVPTNAPHKKEAIEFVKFVLGHPEVLENNGQPAI | soluble |
| MKLAELSKEEIQELSMVEVAYLVMKETKEPFNYQDLLKKVAELKGMSEEQMLDRIGYLYTDLNIDGRFVTLGDNRWGLRSWYPLEQVEEEITGPTKKKAKAKAEEEVDELDENIEVFDDEFEDLEDELDELAESEDSDEEDEEFDEGDDIDELDDEFEESDDDL | not soluble |
| VELIGRSEWINQYRRRLQQLSETDIAVWLYGAPGTGRMTGARYLHQFGRNAQGEFVYRELTPDNAPQLNDFIALAQGGTLVLSHPEHLTREQQYHLVQLQSQEHRPFRLIGIGDTSLVELAASNHIIAELYYCFAMTQIACLPLT | soluble |
| LPELSLEELIRMHDHICFLKSLGYTDYQKHLKKSKVLIVGLGKLGANIAYNLCNVGVGSVILFDRTFISPTEISDIYTKDAIGMKKADYLRKKLTSIFPEIEVQNLPDTINISNYLNDSDFDIIIVNSEHFNIKLLSELNDLLYKISTPYMYAWIEGSRGYIGPLIYPPDTSCFNCYLTWRFFGTFMEDKIKAINNYGSSGYIFPLDKIIGALTVLEVCKAIGSLGTPLFNKIILVEVLPTLTIRYIPILKDPKCNVCEG | not soluble |
| MSLRHGIQAVFLIEKISKCNSLESLSLLVKERQAVFEAMIESHLPANVIGQVLMMIYDAFTCRLIKLAERNVGLPPCNYAWLAAGSHARGEVHLGSDQDNALVLDDSATESDRIYFRHFAMYICKGLAECGYPLCNGRFMAATPKWNQPLFIWKQLYRKWANNPEYNMLLNLNVFLEVRFISGDRSLFDELNSERERCTKNNPHLIAALVRNLISHRPPLGIFNNLVLENNGHNEKSLNIKKSAIGLLVDIARIYALHKGGGMLSTEERFDFAYDRGLINSTSHQDLIGTYRYVTQLRYSHQLQCLQGGKPVTNAIFPEHFGSFERQHLKDAFRIIRGYQDTLKMKFGSEGHHHHHH | soluble |
| MSEEPVAAPGTISHPVYKLKRNWTWWYLNDERNKSWEERLKNVKTFSSVGEFWALHDSIKPPSGLNPPSDYNVFRDGIEPMWEVPQNQNGGRWLITIEKGRTPEIMDTIWTEILMAMIGEQFSDDIESLCGIVCNVRGKGSKISVWTTNSADDGANLRIGGVLKQVLNNASMIHQRPLYDVLRYEDHESCQKKTSSGVKAKHAIYAVEPREEKAPVPVSTETPATPAT | not soluble |
| MERKALVTGGSRGIGRAIAEALVARGYRVAIASRNPEEAAQSLGAVPLPTDLEKDDPKGLVKRALEALGGLHVLVHAAAVNVRKPALELSYEEWRRVLYLHLDVAFLLAQAAAPHMAEAGWGRVLFIGSVTTFTAGGPVPIPAYTTAKTALLGLTRALAKEWARLGIRVNLLCPGYVETEFTLPLRQNPELYEPITARIPMGRWARPEEIARVAAVLCGDEAEYLTGQAVAVDGGFLAY | soluble |
